Test: label from the status in PepcDB records

Sequence	protein production
MSNVTAEQKKEVKGRGFLPSRDGEHFAARIITVNGVINASQAKKIAEAAEKFGNGQLAFTTRLTVELPGVKFEDIEALSEFIASENLITGGTGSRVRPVVACKGTVCVHGLADTQALAAEIHEEFYKNWYDVKLPHKFKIGVGGCPNNCIKPDLNDLGIVGQRVPDYDSELCVGCKKCAVVEVCPVKAAKLTDKGKLEIDSNLCNNCGKCIESCNFDSIEEKESGYKVYIGGKWGKSVRPGTQIDRLFSKEELMTLIEKAILLFREQGNTGERFGITIDRIGADKFIEMLLSDEVLERKEEILEALLHLTGGAVCLEHHHHHH	failed
MSPARARLTAPIVLLMSVATGLAVASNYYAQPLLHTIGAEFALTTATAGAIVTVAQLSYAVGLILLVPLGDLYERRTLIALMTALSAVGLLLSAFSPGIGWLMLGTAVTGLLSVVAQVLVPFAATLAEPHERGKVVGAVMSGLLLGILLARTIAGALADLGSWRTVYWVAAILMLLMSMALWRVLPRSVNPTRLSYPRLLASIVQLYAQEPLLRARSVLGALLFAAFSMLWTPLTFLLSGPNYGYSNTTIGLFGLAGAIGAYGANRFGRLNDRGQGNRSTRQGLLLLASWPLLAWGAHHVAPLLAGVLALDLAIQAVHVTNQSAIYRLRPEARSRLTAGYMTSYFLGGAAGSLLSAWIYAHAGWLGVTAAGALTSLAALLYGCLARSARIPETTPAPAIA	failed
MSPLALLFLTLFNSVLGLSILFPILGPLGRALGLTEVQVGLFSTGYALMQFLLSPYWGRRSERGRKPVLLVGILGFAASFLLFGVFALLGERGLVPPGLLFFLLLLARLLGGAFSSATLPTAQAYVADVTGRENRTAGMALLGAAFGLAVILGPALGAGLAALFGLLAPVFFSAGIALLNALFVYLVLPESRPRGQEAGARLSPFDPRVFPLLLLGLALNLSSVALEQTIAFYFQDRLLLGGVETAQKVGLALVLYGVVAVFVQGVLVRKTGWPPRVLLSLGLPLGILGFVLLVYAKTFWALALGLALQGAGQGLALPGVTAALSLAVGEGEQGLVAGLNSSAQALGRMLGPIVGTGLYRLAPEGPYVLGASLLLLALLFLPALFRRARL	failed
MSPMAPVARAKRKFILLLIKPSHYDDDGYVLRWWRGIIPSNSLATLYGIAADVAARQVLGADVEFEIEAMDEFNTRIDIPALLDRFARNGNFGLVGLVGVQSNQYPRALDIARPFRASGVPVVMGGFHVSGCLAMLDGKAIGLDDCRDMGVAMFAGEAEGGRFDGVLQDAAAGQLQPVYNFLNDLPGIEGVPAPYLPLATVKRTLGLSTSVDAGRGCPYQCSFCTIINVQGRKSRYRTPDDIEAMVRRNWAQGISKYFITDDNFARNKDWEAILDRLIQIRETEDIPLGFMIQVDTLCHKIPRFIEKAKRAGVTRVFIGLENINPANLLTANKRQNKITEYRAMLLAWKDHGIITLAGYILGFPADTPASIRADIDIIKRELPIDVMEFFCLTPLPGSEDHQTLWRAGVAMDPDLNNYDVEHVCTAHPLMSRPEWEAIYREAWSRYYTPDHIETLLRRAAATGIKISSLVKLLAIFSTAIRVENVHPLQCGLFRQRHPSERRPGLAAPNALLFWPRFALDSVRKTGVILAAFAKVAAIGVRVARDPQRLAYTDQALTPVSDDDADSLDLFTQSASAKQAVAHQKKVFDLTHGTP	failed
MSPPGQHYAQADAPQRPVLVQESSYLQLSSEAAEFVTQCQICGKPCQLADEPLWTTLATTIPSTIGAMAVSSAPHLPSGSFEWLTAGRVDPGSRVVVLCPTVAHCRAVASHGADVLAVHRDPDTAEKLNRIPGVMAVCGSPESLPLNSSSFDAVLVHQGFHELAPGLALPEIARVLRPGSVLGVSWLVRDDTVPWVKRLAALLRTVDENAMSGDYGTESVHELISSKYFPEDEHTTKRLWVPVNRDSLVAMAAARPAVRALDSDARSNVLTKVAALADDSAGTSGLRLPYQLECWRAWVDHDELTTPIRPHDDGLTITL	failed
MSPQSPSNSSISTDDQAGKNPAAAFGPNEWLVDEIYQQYLQDPNSVDRAWWDFFADYKPGAAAASAPAGTAAAGAAETTTPAPAAPTAAAPAAPAAPAPAAPAPAPAAPAPAAAPAVPKPAAAAPAPAAAKPAAAAPAQPKAAAATEAAEGPTFVPLRGPAAAVAKNMNASIEVPTATSVRAVPVKLLFDNRIVINNHLKRARGGKISFTHLIGYAMVQAIKAMPSMNWHYAEKDGKPTLVKPAHVNFGLAIDLVKPNGDRQLVVAGIKKAETLNFFEFWQAYEDIVRRARDGKLTMDDFTGVTVSLTNPGGLGTVHSVPRLMPGQSVIMGVGSMDYPAEFQGTSQDTLNKLGISKVMTLTSTYDHRVIQGAASGEFLRIVANFLLGEGGFYDEIFEALRIPYEPVRWLKDIDASHDDDVTKAARVFELIHSYRVRGHVMADTDPLEYRQRKHPDLDITEHGLTLWDLEREFAVGGFAGKSLMKLRDILGVLRDSYCRTTGIEFMHIQDPKQRKWIQDRIERSHSKPEREEQLRILRRLNAAEAFETFLQTKYVGQKRFSLEGGESVIPLLDAVIDSAAESRLDEVVIGMAHRGRLNVLANIVGKSYAQIFREFEGNLDPKSMHGSGDVKYHLGASGTFTGLDGEQIKVSLAANPSHLETVDPIIEGIARAKQDIINKGGTDFTVLPVALHGDAAFAGQGVVAETLNMSQLRGYRTGGTVHIVINNQVGFTAAPESSRSSMYATDVARMIEAPIFHVNGDDPEAVVRVARLAFEFRQAFNKDVVIDLICYRRRGHNESDNPAFTQPLMYDLIDKKRSVRKLYTESLIGRGDITLEEAEQALQDFQGQLEKVFTEVREAISTPGEAPAPEPQPEFPVAVPTAVSQEVVKRIAESQVNIPDHVTVHPRLLPQLQRRAAMIEDDTIDWGMGETLAIGSLLLEGTPVRLSGQDSRRGTFGQRHAVLIDRVTGEDFTPLQYLADDQARLNVYDSLLSEYAVMGFEYGYSLARPDALVMWEAQFGDFVNGAQTVVDEYISAAEQKWGQTSGVTLLLPHGYEGQGPDHSSARIERFLQLCAQNNMTVAQPTLPSNYFHLLRWQVHNPHHKPLVVFTPKSMLRLKAAASKTEEFTTGAFRPVIGDDTVDAAAVRKVVFCAGKLYYDLEAERKKRGATDAAAAETAIIRLERLYPLPGAELQAEIAKYPNAEKYLWAQEEPANQGAWPFIALNLIDHLDLAVGADVPHGERLRRISRPHSSSPAVGSAKRHQAEQEQLVREVFEA	failed
MSPSPLISHRAASADLAGMVRQARQRILLQGNVPGFDVARQIELLHGLAESELGRFLLLYRGLNAEWTHRLVTHQPGSGALAPLERVFYERLPAVLATRERHGHFRRALQRHLRPGCVVASVPCGWMSELLALDYSACPGVQLVGIDYDPEALDGATRLAAGHALAGQITLHRQDAWKLDTREGYDLLTSNGLNIYEPDDARVTELYRRFWQALKPGGALVTSFLTPPPALSPDSPWDMQAIDPHDLQLQQLVFTRLIQPRWNALRTHAQTRAQLEEAGFTDLRFEDDRARLFPTVIARKPA	not failed
MSPTLSILIPVYKRDCRRLLEELYKQAEELSVGYEIILGDDCSGEPYTSQYIAYEQEGLCRLVSAEENMGAGRLRNRLAEEAQGEQLLILDSDTLPASPDFIERYLRHASGTTVVCGGFVYPPKSTNPLRQRYGAEVESRSAEERARKPHSGFISMAFMIPRKQMLATGFPPNMGMGYEDILFGERLRQAGIPILHIDNPVEHYHCDTAEGFLATTRSYLDNLYCHREELAELVSLLRAYNLLKRLHLEHHHHHH	failed
MSPVINHPVLGPAAPSLGWVPAPRYWLRRQRVLDHMRTLERGRLLEIGCGGGALLADLSRLGFDCRALETSPAARVVARAMNADTEGDKIVETAPADWRGSFDVVAAFEVLEHIDDDVGALRDWRDWLVDGGHILISVPADPRKFNAADEWAGHFRRYDKEDLHKVLKQAGFSVVSSETYGYPLANFLEYFRASAHQLMRKQWAHRSRDDATAQSGVNRSLDSKVWPLYSSALGVRALRLADSLQKRFRDNGRGNGLLVIGRRI	failed
MSQEIAVIGSPAFTTGFQLAGVRKVENVADDEKDDDLDAAVEAVLADEDVGIAVMHDDDLAHLSRGVRQSVEASVEPTFVTIGGGASGASGLRDQIKRAIGIDLMDDDDDASAADTEAGDLEHHHHHH	not failed
MSQFFYIHPDNPQQRLINQAVEIVRKGGVIVYPTDSGYALGCKIEDKNAMERICRIRQLPDGHNFTLMCRDLSELSTYSFVDNVAFRLMKNNTPGNYTFILKGTKEVPRRLLQEKRKTIGMRVPSNPIAQALLEALGEPMLSTSLMLPGSEFTESDPEEIKDRLEKQVDLIIHGGYLGQKPTTVIDLTDDTPVVVREGVGDVKPFL	not failed
MSQNVISQPVEAQQSFARAVTESLPGLLLVCAVALVASFVAPKLEAYPLFKTYLSLKDFILAIIFGIIIRNTVGVPAVFQPGLRYSTIMTKTGIVIMGSSYSLAGLVSVGAQALVFIAVFLFGTALVMMWLCRKVGMSTPLAACLAAGMSVCGVSATIAIAPAVKAKNEDMAYSIAVVLMFGLLALIAFPLIGKVFNLTPEQFGAFAGVGIVNSAQVLAAGFGFSQEAGIVAGIYNIGRVVFLPFVVLMLAIMAAAQEAEQGNEVAKINKWQMIRDKFPLFVLGFLAIVCLNTAGVLTKPEVKMAKHFMEWAFLLGFASIGLTTRLSDLRAAGLNGFLFGFGVAGLKAALALAAVLLFMS	failed
MSQSTHQSTDHKRQSQDKNQTHAYAKVWLYFMYYWMIFGIGCYFGQYLPMSWRKPLSLGLLILILATLFIKRARKYGLVISHIYAIIVGLLSYALFTTYLQNLGAEVFYKNIILAIGAFIAFGIIGYFLIKDASSMGKYLFVTLIALIIAGIIGIFINNPIFHTVITIVSLLLFLLYTLYDFNRMKRGQFSPREMGFNLFINLLNIIEDILSLANRFKN	failed
MSQTTTYAGSAGTAKTEIETSTIRAISWRLIPFLVLAYFFSYLDRVNLGFAALTMNAELKFTPLIFSWGAGIFFIGYFIFEVPSNLALEKFGASRWIARIMVTWGIISALMAMVSGVTSFYVLRFLLGVAEAGFFPGIILYLTYWYPAEYRARFLAAFAIAVPVSTVIGAPVSGLLLGLDGVMGLKGWQWLFIIEGIPSVLLGIVTWFYLTDRPEKADWLSAEQKAWLKAKLDSEIAAKQAVKHLSLGEALSSPKVIALSLIYFGFVGALYGMQFWLPQIVKAFGLTNAQTGFVTAIPYLFGTVAMILWARHSDATRERVMHVGAPLLLTAVALGVSSYLTDPTLTMVVLTVAAIGVFCCFGVFWTLPTAWLSGTAAAGGIALINSIGNLAGFGGPYLIGWVKEATGQTSTGLLVLAVLPLLAGILVFVGGHDSKHEFAGQGR	failed
MSRAKAAPVAGPEVAANRAGRQARIVAILSSAQVRSQNELAALLAAEGIEVTQATLSRDLEELGAVKLRGADGGTGIYVVPEDGSPVRGVSGGTDRMARLLGELLVSTDDSGNLAVLRTPPGAAHYLASAIDRAALPQVVGTIAGDDTILVVAREPTTGAQLAGMFENLR	not failed
MSRDEVLTRMRRFGPLAVVAVLCAAAFASGLVEHISLEELRLRGTQLQAFAHENPLLCAAIYLAVYVGTVAISLPGALILSLTGGFLFGPIGGGLAAVTGATGGSTVTFLVFRTAFGEALPFKSSAFIARIAEGLKGDAFNYLLTLRLIPAFPLLAVNVAAGVMNVRVRTFLLASVLGMIPSSFVYAGIGAGLGHVFAKGGPVTVESLLSPRIYLPIIGMGVLAFLPPLWRHWRNGRDVASLDEK	failed
MSRDPTYTINEHDLSFADGRFYVTFKADKSSETVRLNSSCLGNTIIKKLQVEDDNTMHDFVKPKVTTQQAFGLAQQVKELDLQLKDPKSDLWGKIKFNNKAMLVEYANKEMSSAIAQSAEQILLQVKSIDDERYSKFEQTLNGIKQTVKSESVESARTQLASMFDSRISGLDGKYSRLSQTIDSLSSRLDDGVGNYSTLSQKVSGIDLRVSNAANDVSRLSQTAQGLQSQITNANQNYSSLSQTVQGLQTTVRDNQSNATSRINQLSDLISTKVSKGDVETTIAQSYDKIAFAIRDKLPASKMSGSEIISAINLDRSGVKITGKNITLDGNSYISNAVIKDAHIANMDAGKINTGYLNANRIATEAITGEKIKMDYAFFNKLTANEGYFRTLFAKDIFATSVQSVTLSASKITGGVLAATNGASQWDLNNANMTFNRDATINFNSKNNALVRKDGTHTAFVHFSNATPKGYRGSALYASIGITSSGDGIDSASSGRFAGLRSFRYATGYNHTAAVDQTELYGDNVLIADDFNINRGFKFRPDKMEKVLDMNDLYAAVVALGRCWGHLANVGWNTAHSNFTSAVSRELNNYITKI	failed

From a protein production outcome set (Wang et al. 2014)
